Patent publication US20140322233A1 (Takeda / Millennium, published 2014)
Numbering of substitutions follows the chain as printed.

B1: mAb 10D3 (antibody, V domains shown)
VH: QVQLQQWGAGLLKPSETLSLTCAVFGGSFSGYYWSWIRQPPGKGLEWIGEINHRGNTNDNPSLKSRVTISVDTSKNQFALKLSSVTAADTAVYYCARERGYTYGNFDHWGQGTLVTVSS
VL: EIVLTQSPGTLSLSPGERATLSCRASQSVSSRYLAWYQQKPGQAPRLLIYGASSRATGTPDRFSGSGSGTDFTLTISRLEPEDFAVYFCQQYERSFTFGPGTKVD
B2: mAb Abx-393 (antibody, IgG1, V domains shown)
VH: QVQLQESGPGLVKPSETLSLTCTVSGGSIRHYYWSWIRQPPGKGLEWIGYIYYSGSTNYNLSLKSRVTISRDTSKNQVSLKLSSVTAADTAVYYCAAGMGFDYWGQGTLVTVSS
VL: DIQMTQSPSSLSASIGDRVTITCRASQAIRNDLGWYQLKPGKAPKRLIYSASSLQSGVPSRFSGSGSGTEFTLTISSLQPEDSATYYCLQHNSFPPTFGQGTKVEIK
B3: mAb 6H8 (antibody, IgG2, V domains shown)
VH: QVQLVESGGGVVQPGRSLRLSCAASGFTFSSYGMHWVRQAPGKGLEWVAAIWYDGSNKYYADSVKGRFTISRDNSKNTLYLQMNSLRAEDTAVYYCARGRSSSYFDYWGQGTLVTVSS
VL: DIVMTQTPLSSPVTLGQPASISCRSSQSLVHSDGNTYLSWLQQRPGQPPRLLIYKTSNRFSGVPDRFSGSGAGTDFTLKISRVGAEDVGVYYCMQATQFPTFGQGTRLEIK
B4: mAb 8C2 (antibody, IgG2, V domains shown)
VH: B3 VH with A23V, A49G, D62A, Y94F
VL: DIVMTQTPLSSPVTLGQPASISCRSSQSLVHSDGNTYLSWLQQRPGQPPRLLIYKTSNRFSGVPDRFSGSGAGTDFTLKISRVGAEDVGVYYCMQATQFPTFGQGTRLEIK
B5: mAb 10C10 (antibody, IgG2, V domains shown)
VH: B3 VH
VL: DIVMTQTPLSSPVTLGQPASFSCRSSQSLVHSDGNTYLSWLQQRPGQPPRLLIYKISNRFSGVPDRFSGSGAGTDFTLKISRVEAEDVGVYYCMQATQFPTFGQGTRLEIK
B6: mAb Abx-106 (antibody, IgG1, V domains shown)
VH: QVQLQESGPGLVKPSETLSLTCTVSGASISHYYWSWIRQPAGKGLEWIGRIYISGRTSYNPSLKSRVTVSVDTSKNQFSLKLSSVTAADTAVYYCARDRLTGYFDYWGQGTLVTVSS
VL: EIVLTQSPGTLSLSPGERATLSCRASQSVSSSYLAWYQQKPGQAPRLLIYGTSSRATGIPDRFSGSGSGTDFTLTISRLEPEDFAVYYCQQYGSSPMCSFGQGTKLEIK
B7: mAb Abx-012 (antibody, IgG1, V domains shown)
VH: B6 VH
VL: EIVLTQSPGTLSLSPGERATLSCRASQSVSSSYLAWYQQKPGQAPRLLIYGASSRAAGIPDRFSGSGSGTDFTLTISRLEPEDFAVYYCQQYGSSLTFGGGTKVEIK
notes: also called Abx-12
B8: mAb Abx-338 (antibody, IgG1, V domains shown)
VH: B6 VH with A27G, S30R, H31S, S58T, Y59F, V69I, Y94F, L100Y, T101Y, F104L
VL: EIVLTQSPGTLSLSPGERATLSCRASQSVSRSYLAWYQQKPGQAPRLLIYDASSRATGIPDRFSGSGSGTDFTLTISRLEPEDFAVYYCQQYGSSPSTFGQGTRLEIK
B9: mAb Abx-221 (antibody, V domains shown)
VH: EVQLLESGGGLVQPGGSLRLSCAASGFTFSRYAMNWVRQAPGKGLEWVSGISGSGGSTYYADSVKGRFTISRDNSKNTLYLQMNSLRAEDTAVYYCAKDRDFWSGPFDYWGQGTLVTVSS
VL: EIVMTPSSATLSVSPGERATLSCRASQSVSRSLAWYQQKPGQAPRLLIYGASTRATGIPARFSGSGSGTEFTLTISSLQSEDVAVYYCQQYNNWMCSFGQGTKLEIK
B10: mAb Abx-229 (antibody, V domains shown)
VH: B9 VH with S57R
VL: B9 VL with S32N, V83F, Q89H, N92S
B11: mAb Abx-020 (antibody, IgG1, V domains shown)
VH: QVQLVESGGGLVKPGGSLRLSCAASGFTFSDYYMSWIRQAPGKGLEWISYITSSGSTIYYSASVKGRFTISRDNAKNSLYLQMNSLRAEDTAVYYCARDFSGWFGVHFDYWGQGTLVTVSS
VL: DIVMTQTPLSLSVTPGQPASISCKSSQSLLHSDGKTYLYWYLQKPGQPPQLLIYEVSNRFSGVPNRFSGSGSGTDFTLKISRVEAEDVGVYYCMQSIQLTWTFGQGTKVEIK
B12: mAb Abx-198 (antibody, IgG1, V domains shown)
VH: EVQLLESGGGLVQPGGSLRLSCAASGFTFSSYAMSWVRQAPGKGLDWVSDISGSGGSTYYADSVKGRFTISRDNSKNTLYLQMHSLSAEDTAIYYCAKRRWQGYFDLWGRGTLVTVSS
VL: EIVLTQSPGTLSLSPGERATLSCRARQRVDSRYLAWYQQKPGQAPRLLIYGASSRATGIPDRFSGSGSGTDFTLTISRLEPEDFAVYYCQQYGSSPLTFGGGTKVEIK
B13: mAb 8F1 (antibody, IgG1, V domains shown)
VH: QVQLQQPGAELVKPGASVQMSCKASGYIFTGYWMYWVKQRPGQGLEWIGRIHPSDSNTNYNQKFKGKATLTVDKSSSTAYMQLSSLTSEDSAVYYCTHALAYWGQGTLVTVS
VL: DVVLTQTPLTLSITIGQPASISCKSSQSLLYSNGKTYLSWLLQRPGQSPKRLIYLVSQLDSGVPDRFTGSGSGTDFTLKISRVEAEDLGVYYCVQGTHLFTFGSGTKLEIK
B14: 5F9-vc-MMAE (antibody, V domains shown)
VH: B1 VH
VL: EIVMTQSPATLSVSPGERATLSCRASQSVSRNLAWYQQKPGQAPRLLIYGASTRATGIPARFSGSGSGTEFTLTIGSLQSEDFAVYYCQQYKTWPRTFGQGTNVEIK
modifications: mc-vc-MMAE drug-linker on reduced interchain cysteines of the antibody; positions not given
notes: Antibody drug conjugate of 5F9
B15: 5F9-mc-MMAF (antibody, V domains shown)
VH: B1 VH
VL: B14 VL
modifications: mc-MMAF drug-linker on reduced interchain cysteines of the antibody; positions not given
notes: Antibody drug conjugate of 5F9; average loading about four
B16: 5F9-vc-MMAF (antibody, V domains shown)
VH: B1 VH
VL: B14 VL
modifications: mc-vc-MMAF drug-linker on reduced interchain cysteines of the antibody; positions not given
notes: as for B15
B17: mAb 3G1 (antibody, IgG1, V domains shown)
VH: QVQLKESGPGLVAPSQSLSITCTVSGFSLSRNAISWVRQPPGKGLEWLGVIWTGGGTNYNSALKSRLSIRKENSKSQVFLKMNSLQTEDTARYFCARSGYDGFDYWGQGTLVTVSA
VL: QIVLTQSPAIMSASPGEKVTMTCSASSSVNYMHWYQQKSGTSPKRWIYDTSKLASGVPARFSGSGSGTSYSLTITSMEAEDAATYYCQQWSGNPYTFGGGTKLEIK

These binders were tested against T1, human GCC, full length with myc tag (293-GCC#2 cells) (human, UniProt P25092 24-1073) (assay: cell-based or functional assay).
T1 sequence (P25092 24-1073): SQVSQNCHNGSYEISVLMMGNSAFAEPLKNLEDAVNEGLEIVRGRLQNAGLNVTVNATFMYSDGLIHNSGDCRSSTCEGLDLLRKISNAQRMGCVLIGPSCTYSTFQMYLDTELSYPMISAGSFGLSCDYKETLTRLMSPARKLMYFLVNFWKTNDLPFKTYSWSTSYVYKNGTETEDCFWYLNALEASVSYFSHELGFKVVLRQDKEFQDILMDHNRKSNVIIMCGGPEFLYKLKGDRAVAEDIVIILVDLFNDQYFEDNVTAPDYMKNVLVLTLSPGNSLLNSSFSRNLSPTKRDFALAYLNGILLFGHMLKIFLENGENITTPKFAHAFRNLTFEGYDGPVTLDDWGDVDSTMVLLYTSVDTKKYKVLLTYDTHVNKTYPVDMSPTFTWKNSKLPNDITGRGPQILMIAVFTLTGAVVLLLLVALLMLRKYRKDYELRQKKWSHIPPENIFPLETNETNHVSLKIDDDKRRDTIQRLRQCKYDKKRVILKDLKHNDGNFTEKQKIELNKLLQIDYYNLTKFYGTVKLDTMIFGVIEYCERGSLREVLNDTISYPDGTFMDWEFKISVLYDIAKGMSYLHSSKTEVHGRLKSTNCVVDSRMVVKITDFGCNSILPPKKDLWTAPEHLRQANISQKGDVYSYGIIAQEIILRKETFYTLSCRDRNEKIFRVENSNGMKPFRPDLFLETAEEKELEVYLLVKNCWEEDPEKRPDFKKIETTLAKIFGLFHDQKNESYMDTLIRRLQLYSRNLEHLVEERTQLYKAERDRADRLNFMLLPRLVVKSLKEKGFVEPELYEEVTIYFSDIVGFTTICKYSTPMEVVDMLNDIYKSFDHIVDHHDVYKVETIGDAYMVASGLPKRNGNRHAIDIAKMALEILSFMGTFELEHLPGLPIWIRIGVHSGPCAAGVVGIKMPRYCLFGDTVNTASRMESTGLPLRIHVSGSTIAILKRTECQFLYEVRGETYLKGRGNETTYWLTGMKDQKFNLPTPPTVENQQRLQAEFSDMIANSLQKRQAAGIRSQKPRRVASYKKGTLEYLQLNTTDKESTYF

| Binder | LD50, indirect cytotoxicity with DM1-conjugated mouse anti-human IgG, 293-GCC#2 cells, WST after 4 days [pM] |
| --- | --- |
| B1 | 1600 |
| B2 | > 5400 |
| B3 | > 4820 |
| B4 | 2040 |
| B5 | 2440 |
| B6 | 166 |
| B7 | 279 |
| B8 | 267 |
| B9 | 207 |
| B10 | 78 |
| B11 | 569 |
| B12 | > 5400 |

What follows are binders tested against T2, TOK107-hIg (human) (assay: ELISA on coated TOK107-hIg).
T2 construct: Expressed in HEK293 cells; Fc mutated at the CH1 cysteine and at lysine 235 and glycine 237 to alanine; also called hGCC-ECD/hIgG1 Fc; TOK107-hIgG
T2 sequence (chain, as listed by the source limits assumed): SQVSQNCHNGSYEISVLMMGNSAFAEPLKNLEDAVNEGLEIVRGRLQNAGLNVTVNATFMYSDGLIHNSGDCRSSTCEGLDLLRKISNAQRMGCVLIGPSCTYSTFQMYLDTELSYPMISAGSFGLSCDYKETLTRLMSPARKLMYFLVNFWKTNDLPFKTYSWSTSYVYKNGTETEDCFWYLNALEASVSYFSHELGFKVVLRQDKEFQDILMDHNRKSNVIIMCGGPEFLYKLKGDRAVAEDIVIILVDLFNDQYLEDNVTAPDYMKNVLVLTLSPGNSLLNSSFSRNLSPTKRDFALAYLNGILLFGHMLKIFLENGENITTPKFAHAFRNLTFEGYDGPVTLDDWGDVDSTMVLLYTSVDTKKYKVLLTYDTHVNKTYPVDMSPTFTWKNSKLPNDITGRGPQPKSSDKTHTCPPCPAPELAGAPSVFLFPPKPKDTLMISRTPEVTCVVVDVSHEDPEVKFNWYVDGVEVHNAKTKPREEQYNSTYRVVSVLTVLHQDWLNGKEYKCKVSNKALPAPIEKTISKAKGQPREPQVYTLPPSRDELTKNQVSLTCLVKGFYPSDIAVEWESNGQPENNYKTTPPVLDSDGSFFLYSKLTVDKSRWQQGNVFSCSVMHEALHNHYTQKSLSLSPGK

| Binder | binding result |
| --- | --- |
| B1 | binds |
| B2 | binds |
| B3 | binds |
| B4 | binds |
| B6 | binds |
| B13 | binds |

Each binder was assayed against T3, human guanylyl cyclase C (GCC), full length (human, UniProt P25092 24-1073) (assay: FACS with GCC-expressing cells (cell line not given)).
T3 construct: Full length GCC on transfected HT-29 (clones #2, #5, #18) and CT26 (#2.5, #32) cells and endogenous GCC on T84 cells; also called hGCC; STAR
T3 sequence (P25092 24-1073 limits assumed): as the sequence (P25092 24-1073) above

| Binder | EC50 [nM] |
| --- | --- |
| B8 | 90 |

What follows are binders tested against T3, human guanylyl cyclase C (GCC), full … (assay: cell-based or functional assay).

| Binder | LD50, direct cytotoxicity, CT 26 GCC #2.5 cells [nM] | LD50, direct cytotoxicity, CT 26 GCC #32 cells [nM] | LD50, direct cytotoxicity, HT 29 GCC #2 cells [nM] | LD50, direct cytotoxicity, HT 29 GCC #5 cells [nM] | LD50, direct cytotoxicity, HT 29 GCC #18 cells [µM] | LD50, direct cytotoxicity, HT29 GCC#5 cells [nM] |
| --- | --- | --- | --- | --- | --- | --- |
| B14 | > 500 | 267 | 24.1 | 654 | 0.555 | 0.59 |
| B15 | > 10 | 0.064 | 3.1 | > 10000 | > 10 | > 10 |
| B16 | > 10 | 0.004 | 0.127 | 563 | > 10 | – |

What follows are binders tested against T1, human GCC, full length with myc tag … (assay: indirect immunofluorescence flow cytometry, 293 GCC #2 cells;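 note: cells exposed to the test antibodies for 1 h on ice before flow cytometric readout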).

| Binder | MFI at 0.001 µg/ml | MFI at 0.004 µg/ml | MFI at 0.016 µg/ml | MFI at 0.063 µg/ml | MFI at 0.25 µg/ml | MFI at 1 µg/ml |
| --- | --- | --- | --- | --- | --- | --- |
| B14 | 445 | 696 | 1790 | 4850 | 7300 | 7420 |
| B15 | 483 | 776 | 2110 | 5350 | 7400 | 7580 |
| B16 | 440 | 707 | 1500 | 4830 | 7560 | 7780 |

The binders below were run against T3, human guanylyl cyclase C (GCC), full … (assay: FACS with GCC-expressing cells (cell line not given); FACS EC50 on GCC-expressing cells).

| Binder | EC50 [nM] |
| --- | --- |
| B17 | 0.58 |

Each binder was assayed against T2, TOK107-hIg (assay: ELISA against TOK107-hIg).

| Binder | EC50 [nM] |
| --- | --- |
| B7 | 0.555 |
| B8 | 0.0049 |
| B17 | 22.8 |
| B9 | 6.55 |
| B10 | 29.5 |
| B11 | 4.58 |
| B12 | 47.7 |

The binders below were run against T3, human guanylyl cyclase C (GCC), full … (assay: FACS, HT-29#2 cells (full length GCC transfected)).

| Binder | binding result |
| --- | --- |
| B13 | binds |
